Target: T1, CXCR4-VC (CXCR4 fused with C-terminal fragment of Venus) (human)
T1 chain: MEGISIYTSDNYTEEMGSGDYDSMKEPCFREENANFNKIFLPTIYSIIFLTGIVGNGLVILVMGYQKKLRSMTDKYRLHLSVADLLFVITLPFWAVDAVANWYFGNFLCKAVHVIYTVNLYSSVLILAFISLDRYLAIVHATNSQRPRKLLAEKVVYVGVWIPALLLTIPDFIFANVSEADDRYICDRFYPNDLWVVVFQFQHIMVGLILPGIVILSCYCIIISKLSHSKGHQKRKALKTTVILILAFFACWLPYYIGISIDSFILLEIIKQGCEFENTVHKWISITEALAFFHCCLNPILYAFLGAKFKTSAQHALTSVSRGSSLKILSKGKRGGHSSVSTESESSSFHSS
Assay: BiFC, U-2 OS cells co-transduced with adenoviruses (30 MOI each)
Details: remark: other sources report otherwise; scale: BiFC score =

BiFC score: 9.9
B1: CXCR4-VN (CXCR4 fused with N-terminal fragment of yellow fluorescent protein Venus), P61072 1-352 (receptor, not shown: small tags and cut ends)
chain: MEGISIYTSDNYTEEMGSGDYDSMKEPCFREENANFNKIFLPTIYSIIFLTGIVGNGLVILVMGYQKKLRSMTDKYRLHLSVADLLFVITLPFWAVDAVANWYFGNFLCKAVHVIYTVNLYSSVLILAFISLDRYLAIVHATNSQRPRKLLAEKVVYVGVWIPALLLTIPDFIFANVSEADDRYICDRFYPNDLWVVVFQFQHIMVGLILPGIVILSCYCIIISKLSHSKGHQKRKALKTTVILILAFFACWLPYYIGISIDSFILLEIIKQGCEFENTVHKWISITEALAFFHCCLNPILYAFLGAKFKTSAQHALTSVSRGSSLKILSKGKRGGHSSVSTESESSSFHSS
modifications: here or on the partner: Venus N-terminal fragment (VN) fused to the receptor. Its letters are not given, so it is left out.; Venus C-terminal fragment (VC) fused to the receptor. Its letters are not given, so it is left out.

Reference: US20220273751A1, “GPCR HETEROMER INHIBITORS AND USES THEREOF” (GPCR THERAPEUTICS, INC., priority 2019, published 2022)
